Test results: patent US20180002421A1 (INSERM INSTITUT NATIONAL DE LA SANTA ET DE LA RECHERCHE …, published 2018)

Molecular target: T1, orexin receptor type 1 (OX1R), recombinant, stably expressed on HEK cells (human, UniProt O43613 1-425)
T1 construct: whole, on cells; also called HEK-OX1R; hypocretin receptor type 1
T1 sequence (looked up): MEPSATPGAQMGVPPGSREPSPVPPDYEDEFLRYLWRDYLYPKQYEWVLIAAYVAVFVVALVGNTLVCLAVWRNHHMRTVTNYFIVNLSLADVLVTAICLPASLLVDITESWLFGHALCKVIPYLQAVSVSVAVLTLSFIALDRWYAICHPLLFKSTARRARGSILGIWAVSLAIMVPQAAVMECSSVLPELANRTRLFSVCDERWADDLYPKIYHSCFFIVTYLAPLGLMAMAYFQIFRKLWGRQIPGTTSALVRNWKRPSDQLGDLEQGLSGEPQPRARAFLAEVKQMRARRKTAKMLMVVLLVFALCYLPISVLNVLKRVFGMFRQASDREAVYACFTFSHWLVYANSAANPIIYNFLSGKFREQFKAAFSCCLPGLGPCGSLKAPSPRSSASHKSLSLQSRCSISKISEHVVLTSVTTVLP
Test: competitive inhibition of 125I-OxA binding to HEK-OX1R cells

B1: C2 antibody (antibody, V domains shown)
VH: EVQLVESGGSLVKPGGSLRLSCAASGFTFSNSYMNWVRQAPGKGLEWISSIYGSSRYIDYADFVKGRFTISRDNATNSLYLQMNSLRAEDTAVYYCVRSSSYYGSGMDVWGRGTLVTVSS
VL: QSVLTQPASVSGSPGQSITISCAGTSSDVGGYGSVSWYQQHPGKAPKLMIYYDSYRPSGVSNRFSGSKSGNTASLTISGLQAEDEADYYCSSNTNSSTRVFGGGTKLAVLG
notes: Human antibody from phage display; also called anti-OX1R antibody C2
B1 was tested, and the IC50 was roughly 5 µM.
